The supplement of paper PMC7877785
± gives the uncertainty stated by the source.

Test: self-splicing fitness, log relative to wild type (ln ratio); higher = more splicing; Tetrahymena group I intron in knt gene, E. coli kanamycin selection, DiMSum; sequences stand for … in CUCUCU…GGAGGGAAAAGUUAUCAGGCAUGCACCUGGUAGCUAGUCUUUAAACCAAUAGAUUGCAUCGGUUUAAAAGGCAAGACCGUCAAAUUGCGGGAAAGGGGUCAACAGCCGUUCAGUACCAAGUCUCAGGGGAAACUUUGAGAUGGCCUUGCAAAGGGUAUGGUAAUAAGCUGACGGACAUGGUCCUAACCACGCAGCCAAGUCCUAAGUCAACAGAUCUUCUGUUGAUAUGGAUGCAGUUCACAGACUAAAUGUCGGUCGGGGAAGAUGUAUUCUUCUCAUAAGAUAUAGUCGGACCUCUCCUUAAUGGGAGCUAGCGGAUGAAGUGAUGCAACACUGGAGCCGCUGGGAACUAAUUUGUAUGCGAAAGUAUAUUGAUUAGUUUUGGAGUACUCGUGGUCG
Summary of the method: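 Colonies from six replicate transformations of E. coli BL21(DE3) were pooled and amplicon-sequenced on an Illumina HiSeq 2500. The library placed an intron with all eight P1ex-region nucleotides randomised inside the knt kanamycin-resistance gene on pET-22b(+), and cells grew overnight at 37°C or 30°C on LB agar with or without 25 μg/mL kanamycin (plus 100 μg/mL carbenicillin, 50 μM IPTG, 0.2% rhamnose). Fitness is the DiMSum error-weighted combination of wild-type-normalised replicate fold changes, kanamycin versus none.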

Row | Sequence | self-splicing fitness (ln) (30 °C) | self-splicing fitness (ln) (37 °C)
1 | UGACAGCAAUAUUACGUAUU | -3.43 ± 0.15 | -1.78 ± 0.11
2 | UGACAGCAAUAUUACGUCGC | – | -1.64 ± 0.45
3 | UGACAGCAAUAUUACGUCUG | -0.69 ± 0.072 | -0.119 ± 0.093
4 | UGACAGCAAUAUUACGUGAC | -2.64 ± 0.12 | -1.37 ± 0.19
5 | UGACAGCAAUAUUACGUGGA | -3 ± 0.21 | -2.31 ± 0.2
6 | UGACAGCAAUAUUACGUUCU | -0.552 ± 0.071 | -0.321 ± 0.089
7 | UGAGAGCAAUAUUACGAACA | -0.706 ± 0.27 | -0.855 ± 0.2
8 | UGAGAGCAAUAUUACGAACU | -3.05 ± 0.43 | -2.02 ± 0.24
9 | UGAGAGCAAUAUUACGACUA | -1.47 ± 0.22 | -1.64 ± 0.21
10 | UGAGAGCAAUAUUACGCCUU | -3 ± 0.18 | -3.73 ± 0.34
11 | UGAGAGCAAUAUUACGCGAU | -3.4 ± 0.33 | -2.24 ± 0.39
12 | UGAGAGCAAUAUUACGCGUG | -2.82 ± 0.24 | 0.21 ± 0.21
13 | UGAGAGCAAUAUUACGCUUA | – | -2.05 ± 0.3
14 | UGAGAGCAAUAUUACGGCUC | -3.55 ± 0.36 | –
15 | UGAGAGCAAUAUUACGGGUG | -3.65 ± 0.19 | -2.11 ± 0.19
16 | UGAGAGCAAUAUUACGGUCU | – | -2.37 ± 0.36
17 | UGAGAGCAAUAUUACGGUUC | -3.4 ± 0.32 | -1.5 ± 0.23
18 | UGAGAGCAAUAUUACGUGCG | -1.95 ± 0.13 | -1.42 ± 0.15
19 | UGAUAGCAAUAUUACGAAAA | -1.85 ± 0.31 | -2.48 ± 0.4
20 | UGAUAGCAAUAUUACGAAUU | -4.02 ± 0.46 | -2.64 ± 0.23
21 | UGAUAGCAAUAUUACGAUAU | -2.94 ± 0.2 | -2.12 ± 0.21
22 | UGAUAGCAAUAUUACGAUGC | -3.93 ± 0.26 | -1.95 ± 0.17
23 | UGAUAGCAAUAUUACGCAAC | -3.43 ± 0.44 | –
24 | UGAUAGCAAUAUUACGCCUC | -3.09 ± 0.32 | -1.34 ± 0.39
25 | UGAUAGCAAUAUUACGCGAU | -2.6 ± 0.29 | -2.65 ± 0.26

Row | Sequence | self-splicing fitness (ln) (30 °C) | self-splicing fitness (ln) (37 °C)
26 | UGAUAGCAAUAUUACGCUCG | -0.235 ± 0.13 | 0.0592 ± 0.21
27 | UGAUAGCAAUAUUACGCUGC | -3.67 ± 0.31 | -2.61 ± 0.48
28 | UGAUAGCAAUAUUACGGAAA | -4.03 ± 0.43 | -2.2 ± 0.27
29 | UGAUAGCAAUAUUACGGACG | -0.432 ± 0.1 | -0.181 ± 0.15
30 | UGAUAGCAAUAUUACGGCCG | 0.151 ± 0.1 | 0.324 ± 0.15
31 | UGAUAGCAAUAUUACGGCUG | 0.473 ± 0.11 | -0.149 ± 0.14
32 | UGAUAGCAAUAUUACGGGUG | -1.56 ± 0.099 | -0.678 ± 0.11
33 | UGAUAGCAAUAUUACGUACG | -0.418 ± 0.074 | 0.13 ± 0.1
34 | UGAUAGCAAUAUUACGUAUA | -1.17 ± 0.18 | -1.53 ± 0.19
35 | UGAUAGCAAUAUUACGUGAC | -3.54 ± 0.29 | -1.82 ± 0.29
36 | UGAUAGCAAUAUUACGUGCU | -1.84 ± 0.094 | -1.59 ± 0.14
37 | UGAUAGCAAUAUUACGUUGG | -2.45 ± 0.12 | -1.63 ± 0.16
38 | UGCAAGCAAUAUUACGAACC | -1.15 ± 0.15 | -0.525 ± 0.17
39 | UGCAAGCAAUAUUACGACCU | -0.737 ± 0.07 | -0.219 ± 0.089
40 | UGCAAGCAAUAUUACGACGU | -1.76 ± 0.1 | -1.1 ± 0.13
41 | UGCAAGCAAUAUUACGAGAA | -2.52 ± 0.47 | -1.94 ± 0.27
42 | UGCAAGCAAUAUUACGAGAU | -3.16 ± 0.24 | -3.02 ± 0.35
43 | UGCAAGCAAUAUUACGAGCG | -2.37 ± 0.092 | -0.896 ± 0.1
44 | UGCAAGCAAUAUUACGAGCU | -0.536 ± 0.089 | -0.0945 ± 0.1
45 | UGCAAGCAAUAUUACGAGGC | -4.02 ± 0.27 | -2.13 ± 0.23
46 | UGCAAGCAAUAUUACGAUUA | -0.19 ± 0.077 | 0.163 ± 0.092
47 | UGCAAGCAAUAUUACGCCAA | -1.67 ± 0.34 | -0.657 ± 0.19
48 | UGCAAGCAAUAUUACGCCUU | -1 ± 0.16 | -0.449 ± 0.15
49 | UGCAAGCAAUAUUACGCGCU | -1.28 ± 0.12 | -0.818 ± 0.12
